This is an account of results in article PMC3897518.

The target of the test is VP11-His (pET-28b/VP11-His) (White spot syndrome virus (WSSV-TW strain)). The test can be described thus: cross-linking; VP11-His from clear E. coli lysate held on Ni-NTA beads, washed, 0.05% glutaraldehyde in PBS passed through the column, eluted with 250 mM imidazole, SDS-PAGE and anti-His immunoblot. (In general: In western blotting, separated proteins are transferred to a membrane and probed.)

By stoichiometry N is commonly meant a count of units in the complex or per binding partner. For “VP11-His (pET-28b/VP11-His) (natural protein)”, the stoichiometry N was 2.
